Results reported in US20220064275A1 (SCHOLAR ROCK, published 2022).
Numbering of substitutions follows the chain as printed. Values belong to the binder of their own block, whether it stands above or below them.

Experiments:
Assay in all cases: BLI (Octet)
[1] = biological target: T1, human LTBP1-proTGFβ1 complex (human, UniProt Q14766 873-1507)
T1 construct: range 873-1507; biotinylated in Octet and MSD-SET; also called hLTBP1-proTGFβ1; hLTBP1

[2] = biological target: T2, human LTBP3-proTGFβ1 complex (human, UniProt Q9NS15 866-1039)
T2 construct: range 866-1039; also called hLTBP3-proTGFβ1; hLTBP3
T2 sequence (Q9NS15 866-1039 limits assumed, chain 1 of 2): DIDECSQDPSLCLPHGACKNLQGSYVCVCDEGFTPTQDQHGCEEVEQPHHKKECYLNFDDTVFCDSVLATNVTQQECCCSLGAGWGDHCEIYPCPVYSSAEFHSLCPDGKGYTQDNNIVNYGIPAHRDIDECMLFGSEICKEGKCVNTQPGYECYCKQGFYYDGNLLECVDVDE
T2 sequence (chain, as listed by the source limits assumed, chain 2 of 2): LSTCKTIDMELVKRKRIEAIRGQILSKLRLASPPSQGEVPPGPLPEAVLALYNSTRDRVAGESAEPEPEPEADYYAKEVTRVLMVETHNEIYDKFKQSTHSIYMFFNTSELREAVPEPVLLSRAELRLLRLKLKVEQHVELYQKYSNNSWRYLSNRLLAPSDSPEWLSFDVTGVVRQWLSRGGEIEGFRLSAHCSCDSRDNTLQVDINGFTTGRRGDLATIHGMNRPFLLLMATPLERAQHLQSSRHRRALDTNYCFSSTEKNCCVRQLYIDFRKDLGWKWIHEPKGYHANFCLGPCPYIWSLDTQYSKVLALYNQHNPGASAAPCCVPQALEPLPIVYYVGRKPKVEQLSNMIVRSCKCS

[3] = biological target: T3, human GARP-proTGFβ1 complex (human, UniProt Q14392 20-627; P01137 30-390)
T3 construct: also called hGARP-proTGFβ1; hGARP
T3 sequence (Q14392 20-627, chain 1 of 2): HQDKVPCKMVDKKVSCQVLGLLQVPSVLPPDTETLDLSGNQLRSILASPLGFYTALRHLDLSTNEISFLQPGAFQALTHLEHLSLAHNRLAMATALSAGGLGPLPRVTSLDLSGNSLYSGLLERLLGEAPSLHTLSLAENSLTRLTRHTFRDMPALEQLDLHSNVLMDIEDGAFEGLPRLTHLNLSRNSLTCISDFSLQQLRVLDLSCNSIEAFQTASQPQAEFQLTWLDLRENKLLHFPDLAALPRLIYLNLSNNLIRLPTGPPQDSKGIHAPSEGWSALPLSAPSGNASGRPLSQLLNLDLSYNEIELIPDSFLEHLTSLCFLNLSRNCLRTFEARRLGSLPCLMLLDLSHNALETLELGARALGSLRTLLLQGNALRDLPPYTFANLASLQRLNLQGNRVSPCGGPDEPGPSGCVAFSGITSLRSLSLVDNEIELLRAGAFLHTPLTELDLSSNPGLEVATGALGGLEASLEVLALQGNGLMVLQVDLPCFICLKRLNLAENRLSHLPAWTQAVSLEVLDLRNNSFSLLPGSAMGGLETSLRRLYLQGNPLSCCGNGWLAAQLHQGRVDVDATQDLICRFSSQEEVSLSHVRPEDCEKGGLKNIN
T3 sequence (P01137 30-390, chain 2 of 2): as the sequence (chain, as listed by the source limits assumed, chain 2 of 2) above

[4] = biological target: T4, human LRRC33-proTGFβ1 complex (human, UniProt Q86YC3 19-650; P01137 30-390)
T4 construct: also called hLRRC33-proTGFβ1; hLRRC33
T4 sequence (Q86YC3 other isoform, or with tags, fused parts or gaps limits assumed, chain 1 of 2): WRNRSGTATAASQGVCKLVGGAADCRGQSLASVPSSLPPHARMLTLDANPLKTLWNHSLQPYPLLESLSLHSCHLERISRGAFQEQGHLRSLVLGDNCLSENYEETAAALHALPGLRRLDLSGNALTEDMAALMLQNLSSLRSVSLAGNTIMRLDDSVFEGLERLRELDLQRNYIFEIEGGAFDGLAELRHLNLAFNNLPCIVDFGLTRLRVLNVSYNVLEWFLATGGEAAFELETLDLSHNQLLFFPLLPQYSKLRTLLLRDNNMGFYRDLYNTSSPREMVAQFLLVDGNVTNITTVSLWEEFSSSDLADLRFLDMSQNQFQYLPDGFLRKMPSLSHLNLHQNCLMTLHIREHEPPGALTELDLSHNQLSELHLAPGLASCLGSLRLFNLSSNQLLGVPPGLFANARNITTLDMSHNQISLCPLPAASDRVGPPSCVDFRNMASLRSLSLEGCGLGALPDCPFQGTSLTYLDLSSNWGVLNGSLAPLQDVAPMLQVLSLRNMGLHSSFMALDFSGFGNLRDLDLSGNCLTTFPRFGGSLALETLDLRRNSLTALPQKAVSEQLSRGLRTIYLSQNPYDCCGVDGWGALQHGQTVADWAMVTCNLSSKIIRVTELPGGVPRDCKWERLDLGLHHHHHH
T4 sequence (P01137 30-390 limits assumed, chain 2 of 2): as the sequence (chain, as listed by the source limits assumed, chain 2 of 2) above

T1 sequence (Q14766 873-1507 limits assumed, chain 1 of 2): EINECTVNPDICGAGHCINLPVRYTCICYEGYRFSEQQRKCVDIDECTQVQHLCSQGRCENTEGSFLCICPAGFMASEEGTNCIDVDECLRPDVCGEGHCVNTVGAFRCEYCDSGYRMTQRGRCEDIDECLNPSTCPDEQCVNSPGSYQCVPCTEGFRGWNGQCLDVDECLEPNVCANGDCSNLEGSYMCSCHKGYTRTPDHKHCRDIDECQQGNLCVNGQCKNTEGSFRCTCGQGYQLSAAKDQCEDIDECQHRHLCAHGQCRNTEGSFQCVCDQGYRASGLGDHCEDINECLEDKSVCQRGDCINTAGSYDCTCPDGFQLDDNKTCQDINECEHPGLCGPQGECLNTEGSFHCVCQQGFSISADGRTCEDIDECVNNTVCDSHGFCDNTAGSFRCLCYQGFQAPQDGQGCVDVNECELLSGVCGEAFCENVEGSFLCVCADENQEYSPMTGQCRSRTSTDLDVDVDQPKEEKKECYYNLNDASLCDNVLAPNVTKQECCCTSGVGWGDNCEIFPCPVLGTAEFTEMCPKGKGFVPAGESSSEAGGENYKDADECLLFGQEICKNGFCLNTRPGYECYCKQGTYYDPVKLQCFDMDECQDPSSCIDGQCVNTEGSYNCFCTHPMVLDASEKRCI
T1 sequence (chain, as listed by the source limits assumed, chain 2 of 2): as the sequence (chain, as listed by the source limits assumed, chain 2 of 2) above

B1: Ab16 (antibody, V domains shown)
VH: EVQLLESGGGLVQPGGSLRLSCAASGFTFSNYAMSWVRQAPGKGLEWVSAISGSGFTTYYADSVKGRFTISRDNSKNTLYLQMNSLRAEDTAVYYCARVSSGHWDFDYWGQGTLVTVSS
VL: DIQLTQSPSSLSASVGDRVTITCRASQSISSYLNWYQQKPGKAPKLLIYAASNLQSGVPSRFSGSGSGTDFTLTISSLQPEDFATYYCQQTYTVPLTFGGGTKVEIK
Kd [1]: 0.181 nM | Kd [2]: 0.132 nM | Kd [3]: 4.16 nM | Kd [4]: 0.631 nM

B3: Ab9 (antibody, V domains shown)
VH: B1 VH with E1Q, L5V, L11V, N31S, Y32F, S35T, F56A, T57A, Y60F
VL: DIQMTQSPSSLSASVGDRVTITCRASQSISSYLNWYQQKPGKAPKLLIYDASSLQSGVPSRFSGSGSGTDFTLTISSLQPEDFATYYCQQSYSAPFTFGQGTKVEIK
Kd [1]: 0.348 nM | Kd [2]: 0.284 nM | Kd [3]: 15.5 nM | Kd [4]: 1.3 nM

B6: Ab36 (antibody, V domains shown)
VH: B1 VH with S30R, A50S, F56G, T57A, F106L
VL: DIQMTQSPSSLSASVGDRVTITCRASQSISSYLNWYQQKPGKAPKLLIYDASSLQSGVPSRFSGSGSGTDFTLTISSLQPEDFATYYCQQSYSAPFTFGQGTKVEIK
Kd [1]: 0.353 nM | Kd [2]: 0.415 nM | Kd [3]: 12.8 nM | Kd [4]: 1.42 nM

B7: Ab7 (antibody, V domains shown)
VH: B1 VH with S30A, N31D, S35T, S54T, F56A, T57H
VL: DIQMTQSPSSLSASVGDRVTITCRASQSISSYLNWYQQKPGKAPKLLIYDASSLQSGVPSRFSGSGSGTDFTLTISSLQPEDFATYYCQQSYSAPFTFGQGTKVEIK
Kd [1]: 0.487 nM | Kd [2]: 0.417 nM | Kd [3]: 18 nM | Kd [4]: 10.3 nM

B13: Ab28 (antibody, V domains shown)
VH: EVQLVESGGGLVQPGGSLRLSCAASGFTFSSFSMDWVRQAPGKGLEWVSYISPDASTIYYADSVKGRFTISRDNAKNSLYLQMNSLRAEDTAVYYCVRGVLDYGDMLDPWGQGTLVTVSS
VL: DIQMTQSPSSLSASVGDRVTITCQASQDITNYLNWYQQKPGKAPKLLIYDASNLETGVPSRFSGSGSGTDFTFTISSLQPEDIATYYCQQADNHPPWTFGGGTKVEIK
Kd [1]: 0.34 nM | Kd [2]: 0.316 nM | Kd [3]: 0.797 nM | Kd [4]: 0.409 nM

The remaining lines, values ahead:

Kd [1]: 0.276 nM | Kd [2]: 0.249 nM | Kd [3]: 10 nM | Kd [4]: 1.4 nM
B2: Ab13 (antibody, V domains shown)
VH: B1 VH with S30A, N31D, S35T, G53S, S54F, G55A, F56S, T57A, T58I
VL: B1 VL with L4M, N53S, T91V, T93D, V94P

Kd [1]: 0.329 nM | Kd [2]: 0.302 nM | Kd [3]: 15.4 nM | Kd [4]: 10 nM
B4: Ab8 (antibody, V domains shown)
VH: B1 VH with E1Q, L5V, L11V, G16R, N31D, S35V
VL: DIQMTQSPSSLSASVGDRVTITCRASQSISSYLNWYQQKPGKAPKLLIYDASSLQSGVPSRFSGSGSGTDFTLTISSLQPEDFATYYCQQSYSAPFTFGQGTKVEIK

Kd [1]: 0.262 nM | Kd [2]: 0.319 nM | Kd [3]: 10.2 nM | Kd [4]: 1.06 nM
B5: Ab10 (antibody, V domains shown)
VH: B1 VH with S30R, A50S, F56G, T57A
VL: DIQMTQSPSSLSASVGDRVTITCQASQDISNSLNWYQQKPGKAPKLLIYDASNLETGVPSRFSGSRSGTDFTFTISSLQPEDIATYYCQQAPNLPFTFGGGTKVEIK

Kd [1]: 0.312 nM | Kd [2]: 0.257 nM | Kd [3]: 11.5 nM | Kd [4]: 1.02 nM
B8: Ab18 (antibody, V domains shown)
VH: B1 VH with E1Q, L5V, L11V, G16R, N31D, S35V, F56A, T57A, Y60F, R98T
VL: B1 VL

Kd [1]: 0.336 nM | Kd [2]: 0.346 nM | Kd [3]: 10.5 nM | Kd [4]: 1.34 nM
B9: Ab14 (antibody, V domains shown)
VH: B1 VH with N31A, S35T, S54T, F56G, T57S
VL: B1 VL with L4M, N53S, T91V, T93D, V94P

Kd [1]: 0.174 nM | Kd [2]: 0.208 nM | Kd [3]: 8.62 nM | Kd [4]: 0.658 nM
B10: Ab17 (antibody, V domains shown)
VH: B1 VH with L11V, N31S, Y32F, S35T, F56A, T57A, Y60F
VL: B1 VL

Kd [1]: 0.15 nM | Kd [2]: 0.168 nM | Kd [3]: 7.01 nM | Kd [4]: 0.702 nM
B11: Ab15 (antibody, V domains shown)
VH: B1 VH with L5V, L11V, G16R, N31D, S35V
VL: B1 VL

Kd [1]: 0.178 nM | Kd [2]: 0.238 nM | Kd [3]: 0.424 nM | Kd [4]: 0.299 nM
B12: Ab27 (antibody, V domains shown)
VH: B13 VH with S31F, F32Y, S33A, D35N, V97A
VL: B13 VL
